According to the supplement of paper PMC10724198:
± gives the standard deviation of the averaged measurements.
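Also: PSI is a weighted mean of sequencing reads over stability bins, variants kept only with over 10 reads, mCherry proximal and sfGFP distal, peptide attached via GGGS linker.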

The sequences below were run on Saccharomyces cerevisiae (assay: protein stability index of tFT-peptide fusion (C-terminal peptide) (PSI (0-1 scale)); higher = more stable (slower turnover)). Conditions: genetic background: wild type; temperature: 30 C.
PRAPQNEHQTKG was tested, and the protein stability index was 0.667 ± 0.059. With PRASSPPPPTAS the protein stability index was 0.666 ± 0.024. PRCCDIEIESGR gave a protein stability index of 0.68 ± 0.027. With PRDSLMRLDCRL the protein stability index was 0.691 ± 0.022. PRDSPPPPPPPP was tested, and the protein stability index was 0.699 ± 0.027. For PREFLVYDGVRV, the protein stability index was 0.6382 ± 0.0059. Work on PRFPLPLPPPSP yielded a protein stability index of 0.7356 ± 0.0037. PRHGSPASPRPP showed a protein stability index of 0.636 ± 0.086. PRHPLAPLPLPS gave a protein stability index of 0.724 ± 0.026. PRIGEARNLCYK showed a protein stability index of 0.6816 ± 0.006. In the case of PRIGPAPLPRLS, the protein stability index is reported as 0.714 ± 0.043. PRKTRSTTTRKS showed a protein stability index of 0.593 ± 0.038. For PRLHRRPAYTFI, the protein stability index was 0.606 ± 0.022. PRLLPSTCEREV showed a protein stability index of 0.618 ± 0.066. PRLLSTYAGSKW showed a protein stability index of 0.723 ± 0.012. Work on PRLPLPSRPSPR yielded a protein stability index of 0.655 ± 0.064. PRLPSPPGAPPP showed a protein stability index of 0.726 ± 0.011. PRLSPLPPPSFP gave a protein stability index of 0.628 ± 0.045. PRNPLFSPPLPD gave a protein stability index of 0.752 ± 0.0099. Work on PRPGPPPPPPSP yielded a protein stability index of 0.713 ± 0.035. For PRPLALPFCKLW, the protein stability index was 0.808 ± 0.14. Work on PRPLPAPPQRNL yielded a protein stability index of 0.628 ± 0.017. Sequence PRPPLPHQRPRS has a protein stability index of 0.746 ± 0.13. Work on PRPPRSPLPSSL yielded a protein stability index of 0.7 ± 0.041. PRPQTSAHAETG was tested, and the protein stability index was 0.644 ± 0.022. With PRPRPRSGWILL the protein stability index was 0.696 ± 0.036. PRRFPPPSPSPP was tested, and the protein stability index was 0.713 ± 0.085. For PRRPAFPPPGLP, the protein stability index was 0.705 ± 0.072. Sequence PRRQDSRLEQPD has a protein stability index of 0.713 ± 0.0077. Sequence PRRYPPPSPRTS has a protein stability index of 0.704 ± 0.016. For PRSLSLLPPSSP, the protein stability index was 0.734 ± 0.037. Sequence PRSPPPPAQPFV has a protein stability index of 0.705 ± 0.042. For PRSSPPPPPPPP, the protein stability index was 0.681 ± 0.035. Sequence PRSSSPPPRSPP has a protein stability index of 0.669 ± 0.016. In the case of PRTPPQQEPRRP, the protein stability index is reported as 0.709 ± 0.054. For PRVLPFPSFLFF, the protein stability index was 0.657 ± 0.022. PRVPSSPNPPPI was tested, and the protein stability index was 0.805 ± 0.025. PRWYVSFRTDDW gave a protein stability index of 0.709 ± 0.15. PSALGYFRWAVG gave a protein stability index of 0.68 ± 0.042. With PSAPRPSPPALP the protein stability index was 0.855 ± 0.11. With PSAPSLPPFFPP the protein stability index was 0.644 ± 0.04. PSDLFGIQQSLL gave a protein stability index of 0.764 ± 0.018. With PSEPGPPRVSTP the protein stability index was 0.647 ± 0.08. In the case of PSFFLLRVFVPS, the protein stability index is reported as 0.524 ± 0.0061. In the case of PSFSPLPLPSIV, the protein stability index is reported as 0.728 ± 0.039. With PSGAHLAHLLWL the protein stability index was 0.719 ± 0.053. For PSGGAVEGMGGE, the protein stability index was 0.668 ± 0.059. PSGHQAPEMQYL was tested, and the protein stability index was 0.667 ± 0.022. Sequence PSGSNPPRTIPT has a protein stability index of 0.713 ± 0.017. For PSKLNLSRKPEC, the protein stability index was 0.677 ± 0.018. For PSLFFLPPPPSP, the protein stability index was 0.695 ± 0.0096. With PSLGLQAPTPCP the protein stability index was 0.679 ± 0.012. PSLIRTPTTPSP was tested, and the protein stability index was 0.69 ± 0.018. For PSLLSPTPPTTD, the protein stability index was 0.711 ± 0.075. Work on PSLPPPPPRAFS yielded a protein stability index of 0.649 ± 0.0028. PSLSPAPLPGLP showed a protein stability index of 0.706 ± 0.042. PSNLNASLASRV showed a protein stability index of 0.655 ± 0.015. Work on PSPALPVHPPLQ yielded a protein stability index of 0.687 ± 0.011. PSPARLFVSPSP was tested, and the protein stability index was 0.649 ± 0.04. PSPFPPPLPPHL gave a protein stability index of 0.767 ± 0.064. PSPLCDFTRSSI showed a protein stability index of 0.659 ± 0.025. Work on PSPLLPAPRRPP yielded a protein stability index of 0.684 ± 0.085. With PSPPASSPPLPL the protein stability index was 0.665 ± 0.02. PSPPLPLPLLSV was tested, and the protein stability index was 0.633 ± 0.029. PSPPPAIFPFVS showed a protein stability index of 0.71 ± 0.059. PSPPPHGLPRPA was tested, and the protein stability index was 0.675 ± 0.06. PSPPPLSPPTPR was tested, and the protein stability index was 0.667 ± 0.016. Sequence PSPPPPGLFPLP has a protein stability index of 0.632 ± 0.044. PSPPPRRPPAPP gave a protein stability index of 0.666 ± 0.017. For PSPPPSLLPTPP, the protein stability index was 0.679 ± 0.063. For PSPPPTPPLICL, the protein stability index was 0.697 ± 0.025. With PSPPSHRFPAIP the protein stability index was 0.697 ± 0.0081. With PSPRPPPPPPPP the protein stability index was 0.66 ± 0.025. Sequence PSPRSFLSIRFL has a protein stability index of 0.581 ± 0.013. Sequence PSPTAPGPSIPP has a protein stability index of 0.667 ± 0.049. With PSRPAHSPPVPP the protein stability index was 0.646 ± 0.02. Sequence PSRSATRPFPLS has a protein stability index of 0.707 ± 0.071. PSRVPSSVPLAP was tested, and the protein stability index was 0.6864 ± 0.0061. Work on PSSPPDLAFRPP yielded a protein stability index of 0.6157 ± 0.0049. PSSPPSLRLPPL was tested, and the protein stability index was 0.701 ± 0.044. PSSRPPPPPPPP gave a protein stability index of 0.698 ± 0.037. In the case of PSSRRRLLPPPH, the protein stability index is reported as 0.71 ± 0.12. In the case of PSSWGRFLRRRP, the protein stability index is reported as 0.7 ± 0.024. For PSVSPVRLPYLL, the protein stability index was 0.687 ± 0.035. In the case of PTAESFNVRKRD, the protein stability index is reported as 0.723 ± 0.086. For PTAPLIPTGGAP, the protein stability index was 0.685 ± 0.029. Work on PTCALPKLLTHP yielded a protein stability index of 0.796 ± 0.021. With PTDAFFGLCMDC the protein stability index was 0.68 ± 0.038. For PTGQEFYRGGTR, the protein stability index was 0.6927 ± 0.0047. PTGSHARRRPRR gave a protein stability index of 0.65 ± 0.023. Work on PTLLQPPPPSYP yielded a protein stability index of 0.704 ± 0.048. PTLPGEQPRSWQ showed a protein stability index of 0.6701 ± 0.0049. For PTMKLPLLSCAR, the protein stability index was 0.602 ± 0.091. With PTPGSPPPPLHP the protein stability index was 0.706 ± 0.02. In the case of PTPHHPPPHPGP, the protein stability index is reported as 0.726 ± 0.042. With PTPLLTQHPRRP the protein stability index was 0.72 ± 0.043. With PTPLRILFALTP the protein stability index was 0.611 ± 0.12. With PTPMLPNYPWSR the protein stability index was 0.7431 ± 0.0015. Work on PTPPHPTSPPPP yielded a protein stability index of 0.693 ± 0.01. PTPPPAFGFPPP gave a protein stability index of 0.688 ± 0.16. With PTPPTAAPAAPR the protein stability index was 0.714 ± 0.053. Work on PTPPVPPPRTLL yielded a protein stability index of 0.667 ± 0.055. PTPRPTRSPPPP gave a protein stability index of 0.689 ± 0.01. Work on PTPSLPCPDHPL yielded a protein stability index of 0.693 ± 0.0098. Work on PTQPVPPRTPHY yielded a protein stability index of 0.6698 ± 0.0051. In the case of PTRAPVKPDQHP, the protein stability index is reported as 0.798 ± 0.072. PTTTPPPTPITG gave a protein stability index of 0.76 ± 0.065. PTTTRSKDKVQR showed a protein stability index of 0.738 ± 0.041. Sequence PTTVPPGPTSVH has a protein stability index of 0.755 ± 0.058. PTVKVLSWLAGH was tested, and the protein stability index was 0.703 ± 0.018. Work on PVASSPLLPSPS yielded a protein stability index of 0.649 ± 0.061. For PVFDSRDRTFSH, the protein stability index was 0.713 ± 0.042. For PVHPPAPHPSPP, the protein stability index was 0.663 ± 0.037. PVPCNYSPVIHL was tested, and the protein stability index was 0.688 ± 0.029. PVPKFKEPKIWW was tested, and the protein stability index was 0.698 ± 0.021. In the case of PVPPGYFLRSPP, the protein stability index is reported as 0.701 ± 0.032. Work on PVPRPSERSFLL yielded a protein stability index of 0.7316 ± 0.0057. With PVPSYYHKPPPL the protein stability index was 0.704 ± 0.019. For PVRFGNCPSILS, the protein stability index was 0.7725 ± 0.0012. PVSCPPPPLHMS gave a protein stability index of 0.661 ± 0.013. For PVSNVFDLTGMT, the protein stability index was 0.683 ± 0.021. Work on PVSPCSQRGIFV yielded a protein stability index of 0.692 ± 0.01. PVVFFSYPLPSF was tested, and the protein stability index was 0.699 ± 0.019. Work on PWCTPVKRGTSM yielded a protein stability index of 0.763 ± 0.056. With PWDGFGPYAPYP the protein stability index was 0.657 ± 0.081. Sequence PWPLPLPPSSLP has a protein stability index of 0.684 ± 0.018. PWVNLFPCQINI gave a protein stability index of 0.639 ± 0.02. PYAHTKGSLGML was tested, and the protein stability index was 0.6352 ± 0.0013. PYNLSSRPSTLL was tested, and the protein stability index was 0.625 ± 0.053. Work on PYPVRSRPPAPA yielded a protein stability index of 0.6726 ± 0.0039. In the case of PYSFDTNFVLIS, the protein stability index is reported as 0.643 ± 0.1. For PYTPRSTSPPPL, the protein stability index was 0.7702 ± 0.0066. For QAGSTEERFCGG, the protein stability index was 0.664 ± 0.02. For QAKKSLTTKTSD, the protein stability index was 0.658 ± 0.024. For QASRGSLPSEIE, the protein stability index was 0.6414 ± 0.0029. Work on QCESVRLNFGGR yielded a protein stability index of 0.704 ± 0.021. For QDAPPSTPPRPL, the protein stability index was 0.786 ± 0.15. Sequence QDFDHPNSIRLP has a protein stability index of 0.671 ± 0.027. QEKTKTYPIPQR was tested, and the protein stability index was 0.688 ± 0.041. QERWGRGWGTRG was tested, and the protein stability index was 0.709 ± 0.072. QESKRKDMKERN showed a protein stability index of 0.75 ± 0.049. QEVTEVFSSTSY showed a protein stability index of 0.658 ± 0.01. With QEWAQYTHSEQP the protein stability index was 0.735 ± 0.026. With QFDRDCAWRPDV the protein stability index was 0.653 ± 0.039. QFGPSENVEFRS gave a protein stability index of 0.742 ± 0.036. In the case of QGDPTCLKGINE, the protein stability index is reported as 0.669 ± 0.05. With QGGREGSRQRRV the protein stability index was 0.629 ± 0.013. For QGIKRPSSNKSK, the protein stability index was 0.731 ± 0.13. With QGNEQFRYKILQ the protein stability index was 0.598 ± 0.098. Work on QGSRRPRSVVWG yielded a protein stability index of 0.708 ± 0.038. For QGTNKRRNKNWE, the protein stability index was 0.704 ± 0.03. For QGVGDILARVQG, the protein stability index was 0.697 ± 0.048. Sequence QHFIRGWAWPTV has a protein stability index of 0.729 ± 0.034. For QHHRTSIPSSPV, the protein stability index was 0.671 ± 0.025. QIGKQAAATGTA showed a protein stability index of 0.708 ± 0.049. In the case of QIHGQKNFKTLD, the protein stability index is reported as 0.704 ± 0.078. QIIRKKSKVPTH gave a protein stability index of 0.686 ± 0.057. QKDTGKETTYRA showed a protein stability index of 0.681 ± 0.037. QKKELKTKKKER was tested, and the protein stability index was 0.663 ± 0.016. In the case of QKKKKKNTKKKL, the protein stability index is reported as 0.701 ± 0.054.
